Results from paper PMC8562343.

Target: Transportin-1 (TNPO1) (UniProt Q92973)
Test: ITC; MicroCal VP-ITC, 28 injections of 8 µl at 25°C; 50 mM Tris-HCl pH 7.5, 150 mM NaCl, 5 mM TCEP, 0.04% NaN3; standard one-site model; which protein was in the syringe is not given

Chain of UniProt Q92973 (Q92973 whole entry): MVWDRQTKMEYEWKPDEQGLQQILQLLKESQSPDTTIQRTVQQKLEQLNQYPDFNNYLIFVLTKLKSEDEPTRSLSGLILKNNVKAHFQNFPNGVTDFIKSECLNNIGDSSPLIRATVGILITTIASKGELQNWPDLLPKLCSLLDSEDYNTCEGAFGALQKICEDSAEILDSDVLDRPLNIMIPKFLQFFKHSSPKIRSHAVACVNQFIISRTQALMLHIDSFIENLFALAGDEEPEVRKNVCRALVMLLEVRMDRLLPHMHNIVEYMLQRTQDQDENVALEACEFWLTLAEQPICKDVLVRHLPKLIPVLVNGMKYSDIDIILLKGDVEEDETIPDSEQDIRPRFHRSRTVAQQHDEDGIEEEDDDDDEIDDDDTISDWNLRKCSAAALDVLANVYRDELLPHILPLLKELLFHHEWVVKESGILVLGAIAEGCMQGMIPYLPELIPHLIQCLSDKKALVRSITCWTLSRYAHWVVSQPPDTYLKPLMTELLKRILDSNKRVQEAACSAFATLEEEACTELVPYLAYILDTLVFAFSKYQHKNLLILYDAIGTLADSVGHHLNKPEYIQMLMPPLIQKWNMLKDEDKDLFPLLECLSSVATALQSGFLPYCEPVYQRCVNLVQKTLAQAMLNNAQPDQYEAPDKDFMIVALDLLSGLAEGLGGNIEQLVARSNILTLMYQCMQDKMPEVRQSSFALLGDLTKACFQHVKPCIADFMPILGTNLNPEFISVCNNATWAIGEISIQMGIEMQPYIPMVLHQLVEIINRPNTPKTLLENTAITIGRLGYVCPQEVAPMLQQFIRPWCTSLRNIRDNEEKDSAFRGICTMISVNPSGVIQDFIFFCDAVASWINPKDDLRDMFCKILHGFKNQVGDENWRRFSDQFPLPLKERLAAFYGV

Kd: 124 nM
Substance: RG/RGG region of cold-inducible RNA-binding protein (CIRBP-RGG, amino acids 68-137) (from UniProt Q14011 68-137) (domain or fragment)
